# Experiment: soluble on expression in E. coli; label from the status in PepcDB or PDB records
row,Sequence,soluble on expression in E. coli
1,SLSTADALDDENTFKILVATDIHLGFMEKDAVRGNDTFVTLDEILRLAQENEVDFILLGGDLFHENKPSRKTLHTCLELLRKYCMGDRPVQFEILSDQSVNFGFSKFPWVNYQDGNLNISIPVFSIHGNHDDPTGADALCALDILSCAGFVNHFGRSMSVEKIDISPVLLQKGSTKIALYGLGSIPDERLYRMFVNKKVTMLRPKEDENSWFNLFVIHQNRSKHGSTNFIPEQFLDDFIDLVIWGHEHECKIAPTKNEQQLFYISQPGSSVVTSLSPGEAVKKHVGLLRIKGRKMNMHKIPLHTVRQFFMEDIVLANHPDIFNPDNPKVTQAIQSFCLEKIEEMLENAERERLGNSHQPEKPLVRLRVDYSGGFEPFSVLRFSQKFVDRVANPKDIIHFFRHREQKEKTGEEINFGKLITKPSEGTTLRVEDLVKQYFQTAEKNVQLSLLTERGMGEAVQEFVDKEEKDAIEELVKYQLEKTQRFLKERHIDALEDKIDEEVRRFRETRQKNTNEEDDEVREAMTRARALR,soluble
2,SLTASIVYLNNVRLETGFAKDHHELTYTKTARYTLAIQEGKIQAIIPQNQVTEKQQGTDLNGQLAIPAFQESHNHLDKTYLSLGWRASQPVKNLKERLADEASELKLLAPSTEQRATAMIEKLIGYGASYIRTHVNIDPYVELENFWGVKRALEKYAHVIDYDIVVFPQHGLLKNPQTVLLMREALKNGGTMVGGLDPAGIDYAIEESLETIFDLAEEFQVGIDIHLHDTGEVGVYTIDKFLDILEERKFTQRTAISHAFALLDVRPAEKEKLYQRLATHQTAIMSTIPYDPRYLLPPIDVLRQAGVSVHLGSDGFFDSWSSNVSGDLFEKLRNFCEMTGKITEEQLTQAYVHGCGKVAPFSFEEERLWFTEGDEANFIFTEAASTAEVIARKPQKRQIMLKGQWV,soluble
3,SLTRATKGFLSKSLPKASEATPGSQSSDYIPLVSLQLASGAFLLNEAFCTTIQIPMEKLKWTSPFSCLRMSLVTRRQDLKTQSPQDCTSLSSSPPSCDGISLKSEESSDQESNAMLEHMGKLWATVVALAWLEHSSANYIIEWELVAAKASSWVEKQKVPEGRTLSTLKNTARQLFVLLRHWDEKLEFNMLCYNPNYV,soluble
4,SLTTENQNPLVLDKNEEISQQKADDIRLQLRQEPEVKRLAQQIDVKNQMELLEYGKEPAVEISKFSDRILGMMKTTSVTDSGTMLTQLGKIMDRFDKNDFDEPKGLMAKIFKRGGSMIEKIFKKYQTLGGEIEKIHVEISKYKDEMTKTNYTLDEMYENNIKYYMELEKYVVAGQMKLEEMQSILPSYEEKAASGNQLAQMQLDTLRNGIQALEERVYDLDMARMVALQTAPQIRLLQRGNAKLIGKINSAFIITIPIFKNGIIQAVTVKRQKLVADSMSELDRRTNEMLKRNAENISSQSVEIARMAGRPSIDIETIESSWNTIVSGMQETKQIEEENKRLREDGARRIAQLQDNIKKAALQQ,soluble
5,SLTTFATEWEKQLELYPEEYRKAYRRVKRASEILLREPEPQVGLTPKEVIWTKNKTKLYRYIPKQEKTQRVPILLIYALINKPYIMDLTPGNSLVEYLVDRGFDVYMLDWGTFGLEDSHLKFDDFVFDYIAKAVKKVMRTAKSDE,soluble
6,SLVARSVVVSAEAVYSHEGEYVGDHVLVDEGLVKSISRGEPHVSVGKRVAVKGFLLPPLVDAHLHMRSLGASFRIVNLKGASSPEEVAKRLAAANSPIAVGRGWNEEEFRPGSRLDRRILDSYLGEKPALAVRICGHVAVANSAFIRESGVDKLFPNLVDRERGLLLEDAVSYAVSVAMKTYNNEELLRDAASALASVGVFGVSSMACSEEEVRALSLIGDALEVRVACYLRRGVEPPPKRAGARWSIVGVKLFADGSLGGRTAYLRRPYISGENEGWRGLKLLSSRDIAEEAVSNSHRGLATAVHAIGDAALDEVLEGFSNAISRGVEPGMLRVEHASLAWPNQIDRLASLRVWTVVQPLFRVSDWWLESRVGSDMLQAAYPFASMLRAGVKLALSTDAPVETYDPAETFKAAVGLCSSRLCRESESLTPRETLKLYTLNSALASGGPVAWLGRLRRGAPALFAVANVDVLNSGRKELEKLKFRGLNLAK,not soluble
7,SMAFKIQLDTLGQLPGLLSIYTQISLLYPVSDSSQYPTIVSTFEQGLKRFSEAVPWVAGQVKAEGISEGNTGTSFIVPFEDVPRVVVKDLRDDPSAPTIEGMRKAGYPMAMFDENIIAPRKTLPIGPGTGPDDPKPVILLQLNFIKGGLILTVNGQHGAMDMVGQDAVIRLLSKACRNDPFTEEEMTAMNLDRKTIVPYLENYTIGPEVDHQIVKADVAGGDAVLTPVSASWAFFTFSPKAMSELKDAATKTLDASTKFVSTDDALSAFIWKSASRVRLERIDGSAPTEFCRAVDARPAMGVSNNYPGLLQNMTYHNSTIGEIANESLGATASRLRSELDPASMRQRTRGLATYLHNNPDKSNVSLTADADPSTSVMLSSWAKVGLWDYDFGLGLGKPETVRRPIFEPVESLMYFMPKKPDGEFCAALSLRDEDMDRLKADKEWTKYAQYVG,soluble
8,SMFIKKIKAKANNNEINVIIEIPMNSGPIKYEFDKESGALFVDRFMQTTMSYPCNYGFIPDTLSNDGDPVDVLVVAHHPVVPGSVIKCRAIGVLMMEDESGLDEKIIAVPTSKLDITFDHIKELDDLCEMLKKRIVHFFEHYKDLEKGKWVKVTGWGDKVKAETLIKEGIDRN,soluble
9,SMPHSVTLRGPSPWGFRLVGGRDFSAPLTISRVHAGSKAALAALCPGDLIQAINGESTELMTHLEAQNRIKGCHDHLTLSVSRPEGESDL,soluble
10,SMSMKATRLAIPDVILFEPRVFGDDRGFFFESYNQRAFEEACGHPVSFVQDNHSRSARGVLRGLHYQIRQAQGKLVRATLGEVFDVAVDLRRGSPTFGQWVGERLSAENKRQMWIPAGFAHGFVVLSEYAEFLYKTTDFWAPEHERCIVWNDPELKIDWPLQDAPLLSEKDRQGKAFADADCFP,soluble
11,SNAMARKKNTSDQSRSQAANTPIAGTYEGEYSVIELEADSYTTDGWLISINGVPSSHIVLGQPQALEFEYMRWIATGARAFIDAHQDASKLRITHLGGGACTMARYFADVYPQSRNTVVELDAELARLSREWFDIPRAPRVKIRVDDARMVAESFTPASRDVIIRDVFAGAITPQNFTTVEFFEHCHRGLAPGGLYVANCGDHSDLRGAKSELAGMMEVFEHVAVIADPPMLKGRRYGNIILMGSDTEFFSSNSTEASAITRELLGGGVPAQYKDESWVRKFASGAQARHDGVSTLQMPSDTPQHPAETPEHSNTQP,soluble
12,SNAMIRKYRYGAPFDTEALTEKIETAEEAFPYGEISQKEGFAFTYIMDEDDIVYGLGESNRGINKRGYCYISNCTDDPIHTEDKRSLYGAHNFIIVSGKTTFGLFFDYPSKLTFDIGYTRMDTLKVSCENADLDIYVIEGENAYDIVKQFRRVIGRSYIPPKFAFGFGQSRWGYTTKEDFRAVAKGYRENHIPIDMIYMDIDYMQDFKDFTVNEKNFPDFPEFVKEMKDQELRLIPIIDAGVKVEKGYEVYEEGVKNNYFCKREDGSDFVAAVWPGDTHFPDMLNPEARKWFGDKYRFLIDQGIEGFWNDMNEPAIFYSSEGLAEAKEFAGEFAKDTEGKIHPWAMQAKMKDIVNSPEDYKRFYHNVNGKKIRHDKVHNLFGYNMTRAAGEAFERIDPEKRFLMFSRSSYIGMHRYGGIWMGDNKSWWSHILLNLKMLPSLNMCGFMYTGADLGGFGDDTTRDLLLRFLALGVFTPLMRDHAAEGTREQECYQFENIEDFRSVINARYRLVPYLYSEYMKAALNDDMYFKPLGFVYPDDKMAIRVEDQLMLGNEIMIAPVYEQNARGRYVYLPEEMKFIKFMPDGSISEEVLEKGVHYVDVALNEVPLFIRSGKCIPVAEAAECVKDIDTENMQLIGYEGSSYTLYEDDGIHKDYDKKENYRVLTK,soluble
13,SNAMQKSVLEQLKQVTMVVADTGDFELIKKYKPVDATTNPSLILKAVKEQKYSNLVAETISKVKANNPDLNSDDLVKEIAIEILVSFGIKILDVIEGKVSSEVDARVSFNSATTIDYAKRIIARYESNGIPKDRVLIKIAATWEGIKAAKLLQKEGINCNLTLIFDKAQAKACAEAGVYLVSPFVGRITDWQMQQNNLKTFPAIADDDGVNSVKAIYKLYKSHGFKTIVMGASFRNVEQVIALAGCDALTISPVLLEELKNRDEHLEVKLTKNDDVVTQSPQISEADFRWLMNENAMATHKLAEGIRLFTKDTIELENIIKQNL,soluble
14,SNAMRIGHGFDVHKFGENGSGPLIIGGVRIPYEKGLLAHSDGDVALHAATDALLGAAALGDIGKLFPDTDPAFKGADSRGLLREAYRRILAKGYKLGNLDITIIAQAPKMAPHIPQMRVNLAEDLQCHMDDINVKATTTEQLGFTGRGEGIACEAVVLLVNVEQG,soluble
15,SNDLSQWSISKDSNLDSPWIEGIPGCGIPGAGSLVEHIDRQILVLQRDGRYIVGLLRSYDQYANLVLENTFERFVLNDSYCDEPLGVFIIRGENVALLGEVDGEKESQWLSHLHTVSLEDTKKTIRGKRQATKALLHSQPERVEWTFYDDAFF,soluble
16,SNPFAHLAEPLDPVQPGKKFFNLNKLEDSRYGRLPFSIRVLLEAAIRNCDEFLVKKQDIENILHWNVTQHKNIEVPFKPARVILQDFTGVPAVVDFAAMRDAVKKLGGDPEKINPVCPADLVIDHSIQVDFNRRADSLQKNQDLEFERNRERFEFLKWGSQAFHNMRIIPPGSGIIHQVNLEYLARVVFDQDGYYYPDSLVGTDSHTTMIDGLGILGWGVGGIEAEAVMLGQPISMVLPQVIGYRLMGKPHPLVTSTDIVLTITKHLRQVGVVGKFVEFFGPGVAQLSIADRATIANMCPEYGATAAFFPVDEVSITYLVQTGRDEEKLKYIKKYLQAVGMFRDFNDPSQDPDFTQVVELDLKTVVPCCSGPKRPQDKVAVSDMKKDFESCLGAKQGFKGFQVAPEHHNDHKTFIYDNTEFTLAHGSVVIAAITSCTNTSNPSVMLGAGLLAKKAVDAGLNVMPYIKTSLSPGSGVVTYYLQESGVMPYLSQLGFDVVGYGCMTCIGNSGPLPEPVVEAITQGDLVAVGVLSGNRNFEGRVHPNTRANYLASPPLVIAYAIAGTIRIDFEKEPLGVNAKGQQVFLKDIWPTRDEIQAVERQYVIPGMFKEVYQKIETVNESWNALATPSDKLFFWNSKSTYIKSPPFFENLTLDLQPPKSIVDAYVLLNLGDSVTTDHISPAGNIARNSPAARYLTNRGLTPREFNSYGSRRGNDAVMARGTFANIRLLNRFLNKQAPQTIHLPSGEILDVFDAAERYQQAGLPLIVLAGKEYGAGSSRDWAAKGPFLLGIKAVLAESYERIHRSNLVGMGVIPLEYLPGENADALGLTGQERYTIIIPENLKPQMKVQVKLDTGKTFQAVMRFDTDVELTYFLNGGILNYMIRKMAK,soluble
17,SNTPSAEADWSPGLELHPDYKTWGPEQVCSFLRRGGFEEPVLLKNIRENEITGALLPCLDESRFENLGVSSLGERKKLLSYIQRLVQIHVDTMKVI,soluble
18,SPLKFELCPGRMIGGNNPCFIIAEIGQNHQGDIEIAKKMIKMAKDCGADCAKFQKSELEYKFNKKALERPYTSKHSWGKTYGEHKRHLEFSHEQYRELQQYAKQVGIFFTASGMDEMAVEFLHELDVPFFKVGSGDTNNFPYLKKTAQKGRPMVVSSGMQSMETMQHVYKIVKEHNQNFCILQCTSAYPLEPEDVNLRVITEYQKEFPDIPIGYSGHESGINITVGAVALGAKVVERHVTLDKSWKGSDHAASLEPEELAELVRSIRIVERALGTGLKRMLPCEVPCHDKLGKSVVAKTSIPKGTELTLDMLAVKVAEPKGVAPEEIFQLVGKKVTTDVEEDESITEDVVDSYGKKAKA,soluble
19,SPRPRKRQTGTAGPDRKKLSGKRTKTENSESTSVKLENSSLEMTTTFKNGGKNLSNYWLMKSEPESRLEKGIDMKFSIEDLKAQPKQTACWDGVRNYQARNFLRAMKLEDEAFFYHSNCKQPGIVGLMKIVKEAYPDHTQFEKSNPHYDPSSKEDDPKWSMVDVQFVRMMKRFIPLEELKTYHQAHKATGGPLKSMTLFTRQRLSVQPLTQEEFDFILSLEETEPS,soluble

# Reference: the DeepSol protein solubility set
